These results are taken from the Immune Epitope Database (IEDB).

pIC50, pKd: −log10 of the molar value.

The target in one experiment is HLA-B*45:06. The experiment is described as follows: IEDB peptide-MHC binding, purified MHC/competitive/fluorescence; filed as Kd, often an IC50 or EC50 that approximates it; ≥ and ≤ were set here for values at or beyond the usual limits of such assays. As to conditions: source organism: Yellow fever virus.
The target in another experiment is HLA-B*83:01. The experiment is described as above. As to conditions: source organism: Yellow fever virus.
The next experiment has as its target HLA-B*15:42. Described as above. As to conditions: source organism: Yellow fever virus.
Experiment [1] deals with HLA-A*01:01. Put plainly: IEDB peptide-MHC binding, purified MHC/direct/fluorescence; filed as Kd, often an IC50 or EC50 that approximates it; ≥ and ≤ were set here for values at or beyond the usual limits of such assays.
Another experiment addresses HLA-C*12:03. Described as above.
Experiment [2] has as its target HLA-B*39:01. The experiment is described as follows: IEDB peptide-MHC binding, purified MHC/competitive/fluorescence; filed as Kd, often an IC50 or EC50 that approximates it; ≥ and ≤ were set here for values at or beyond the usual limits of such assays. The settings on record: source organism: Tetraodon nigroviridis.
The target in the next experiment is HLA-B*27:03. The experiment is described as above. As to conditions: source organism: Tetraodon nigroviridis.
The next experiment concerns the target HLA-B*51:01. The description is as above.
The target of experiment [3] is HLA-B*46:01. The description is as above.
A further experiment has as its target HLA-A*11:01. The experiment is described as follows: IEDB peptide-MHC binding, purified MHC/direct/fluorescence; filed as Kd, often an IC50 or EC50 that approximates it; ≥ and ≤ were set here for values at or beyond the usual limits of such assays.
Experiment [4] concerns the target HLA-A*03:01. Described as above.
The target in experiment [5] is HLA-B*39:01. The description is as above.
Another experiment has as its target HLA-B*40:01. The description is as above. As to conditions: source organism: Giardia lamblia ATCC 50803.
The target of experiment [6] is HLA-B*58:01. The description is as above.
A further experiment addresses HLA-A*69:01. The experiment is described as above. As to conditions: source organism: Giardia lamblia ATCC 50803.
Experiment [7] deals with HLA-B*07:02. Described as above.
For experiment [8], the target named is HLA-A*02:01. Described as above.
The target of another experiment is HLA-B*27:05. The experiment is described as above.
A further experiment has as its target HLA-A*31:01. Described as above.
The target in experiment [9] is HLA-A*26:01. The description is as above. The settings on record: source organism: Giardia lamblia ATCC 50803.
The next experiment addresses HLA-B*08:01. Described as above. The settings on record: source organism: Giardia lamblia ATCC 50803.
Another experiment has as its target HLA-B*44:02. The experiment is described as above.
The target of experiment [10] is HLA-B*15:01. The description is as above.
Experiment [11] concerns the target HLA-B*07:02. The experiment is described as follows: IEDB peptide-MHC binding, purified MHC/competitive/fluorescence; ≥ and ≤ were set here for values at or beyond the usual limits of such assays.
Experiment [12] deals with HLA-B*58:01. The experiment is described as follows: IEDB peptide-MHC binding, purified MHC/competitive/radioactivity; filed as Kd, often an IC50 or EC50 that approximates it; ≥ and ≤ were set here for values at or beyond the usual limits of such assays. The settings on record: source organism: Dengue virus 1 Singapore/S275/1990.
Another experiment concerns the target HLA-A*24:02. The experiment is described as above. As to conditions: source organism: Dengue virus 1 Singapore/S275/1990.
Experiment [13] has as its target HLA-A*01:01. The description is as above. The settings on record: source organism: Dengue virus 1 Singapore/S275/1990.
For a further experiment, the target named is HLA-A*23:01. The description is as above. As to conditions: source organism: Dengue virus 1 Singapore/S275/1990.
In experiment [14] the target is HLA-B*57:01. Described as above. The settings on record: source organism: Dengue virus 1 Singapore/S275/1990.
For experiment [15], the target named is HLA-A*26:01. The experiment is described as above. As to conditions: source organism: Dengue virus 1 Singapore/S275/1990.
Another experiment deals with HLA-B*15:17. Put plainly: IEDB peptide-MHC binding, purified MHC/direct/fluorescence; filed as Kd, often an IC50 or EC50 that approximates it; ≥ and ≤ were set here for values at or beyond the usual limits of such assays.
Experiment [16] deals with HLA-B*57:01. Described as above.
Experiment [17] has as its target HLA-A*03:01. The experiment is described as follows: IEDB peptide-MHC binding, purified MHC/competitive/fluorescence; filed as Kd, often an IC50 or EC50 that approximates it; ≥ and ≤ were set here for values at or beyond the usual limits of such assays. As to conditions: source organism: Cryptosporidium parvum Iowa II.
For experiment [18], the target named is HLA-A*02:01. Described as above. The settings on record: source organism: Cryptosporidium parvum Iowa II.
The target in another experiment is HLA-A*02:03. Described as above. As to conditions: source organism: Cryptosporidium parvum Iowa II.
For another experiment, the target named is HLA-B*18:01. Described as above. As to conditions: source organism: Cryptosporidium parvum Iowa II.
In experiment [19] the target is HLA-B*57:01. Described as above. The settings on record: source organism: Cryptosporidium parvum Iowa II.
The target of the next experiment is HLA-A*02:11. The description is as above. As to conditions: source organism: Cryptosporidium parvum Iowa II.
In experiment [20] the target is HLA-A*26:01. The experiment is described as above. As to conditions: source organism: Cryptosporidium parvum Iowa II.
The target in experiment [21] is HLA-B*15:01. The experiment is described as above. The settings on record: source organism: Cryptosporidium parvum Iowa II.
For a further experiment, the target named is HLA-B*48:01. Put plainly: IEDB peptide-MHC binding, purified MHC/direct/fluorescence; filed as Kd, often an IC50 or EC50 that approximates it; ≥ and ≤ were set here for values at or beyond the usual limits of such assays. As to conditions: source organism: Mammarenavirus lassaense.
The target of experiment [22] is HLA-B*46:01. The description is as above. The settings on record: source organism: Mammarenavirus lassaense.
Setting [23] is: source organism: Tetraodon nigroviridis.
Where [24] appears, read: source organism: Giardia lamblia ATCC 50803.
The mark [25] stands for this setting: source organism: Mycobacterium tuberculosis.
Setting [26] is: source organism: Cryptosporidium parvum Iowa II.
Setting [27] is: source organism: Mammarenavirus lassaense.
The mark [28] stands for this setting: source organism: Cryptosporidium parvum.

By pKd is commonly meant the Kd on a negative log10 scale, so that one unit is a factor of ten. On to MVIFFMSPK, for which the pKd with HLA-B*45:06, in the experiment with HLA-B*83:01 and in the experiment with HLA-B*15:42 was no more than 5.30 in each case.

In the case of NTFKFGVIY, the pKd in the experiment with HLA-A*01:01 [1] (source organism: Danio rerio) is 6.28; with HLA-C*12:03 (setting [23]), no less than 9.00; with HLA-B*39:01 [2], no more than 4.70; with HLA-B*27:03 it was no more than 4.70; in the experiment with HLA-B*51:01 (setting [23]), no more than 4.70; in the experiment with HLA-B*46:01 [3] (setting [23]) it was no more than 4.70.

For SHSIPNGLL, the pKd was no more than 4.70 with HLA-A*11:01 (setting [24]); no more than 4.70 in the experiment with HLA-A*03:01 [4] (setting [24]); 6.45 in the experiment with HLA-B*39:01 [5] (setting [24]); no more than 4.70 with HLA-B*40:01; no more than 4.70 with HLA-B*58:01 [6] (setting [24]); no more than 4.70 with HLA-A*01:01 [1] (setting [24]). For the same sequence, the pKd with HLA-A*69:01, in the experiment with HLA-B*07:02 [7] (setting [24]), with HLA-A*02:01 [8] (setting [24]), with HLA-B*27:05 (setting [24]), in the experiment with HLA-A*31:01 (setting [24]) and with HLA-A*26:01 [9] was no more than 4.70 in each case. The pKd in the experiment with HLA-B*08:01, with HLA-B*44:02 (setting [24]) and in the experiment with HLA-B*15:01 [10] (setting [24]) was no more than 4.70 throughout.

As for FLSDYGPQL, the pKd in the experiment with HLA-C*12:03 (source organism: Mycobacterium tuberculosis variant bovis BCG str. Pasteur 1173P2) is 6.63.

One may read the pIC50 as the negative decadic logarithm of the IC50, by convention in mol/L. In turn, KPPKFRAFR showed a pIC50 with HLA-B*07:02 [11] (source organism: Vaccinia virus) of no more than 3.77.

As to VTARWLWGF, the negative-log Kd (pKd) with HLA-B*58:01 [12] was 7.42; in the experiment with HLA-A*24:02, 6.82; in the experiment with HLA-A*01:01 [13] it was 5.40; with HLA-A*23:01, 6.87; with HLA-B*57:01 [14] it was 8.80; with HLA-A*26:01 [15], 5.15.

Take RAYWIHLMM: the pKd was 8.66 in the experiment with HLA-B*15:17 (setting [25]), 7.02 with HLA-B*58:01 [6] (setting [25]), 8.70 with HLA-C*12:03 (source organism: Mycobacterium tuberculosis C) and 6.78 with HLA-B*57:01 [16] (source organism: Mycobacterium tuberculosis str. Haarlem).

Take IKRTLAAMP: the pIC50 in the experiment with HLA-B*07:02 [11] (source organism: Zaire ebolavirus) was no more than 3.82.

Consider ERTDLFFPV, for which the pKd with HLA-A*03:01 [17] is no more than 4.70; in the experiment with HLA-A*02:01 [18], no more than 4.70; with HLA-A*02:03, no more than 4.70; with HLA-B*18:01, no more than 4.70; with HLA-B*57:01 [19] it was no more than 4.70; with HLA-A*02:11 it was 5.55. The pKd in the experiment with HLA-A*26:01 [20], with HLA-B*51:01 (setting [26]), with HLA-B*46:01 [3] (setting [26]) and with HLA-B*15:01 [21] was no more than 4.70 each time.

As for IEEVMNIVL, the pKd in the experiment with HLA-A*11:01 (setting [27]) is no more than 4.70; with HLA-A*03:01 [4] (setting [27]), no more than 4.70; with HLA-B*39:01 [5] (setting [27]), 6.02; with HLA-B*58:01 [6] (setting [27]), no more than 4.70; with HLA-A*01:01 [1] (setting [27]) it was no more than 4.70; with HLA-B*07:02 [7] (setting [27]), no more than 4.70. In addition, the pKd with HLA-A*02:01 [8] (setting [27]), with HLA-B*48:01, in the experiment with HLA-B*27:05 (setting [27]), with HLA-B*57:01 [16] (setting [27]), with HLA-A*31:01 (setting [27]) and with HLA-B*46:01 [22] was no more than 4.70 throughout. In addition, the pKd in the experiment with HLA-B*44:02 (setting [27]) and in the experiment with HLA-B*15:01 [10] (setting [27]) was no more than 4.70 in each case.

In the experiment with HLA-B*39:01 [5] (source organism: Influenza A virus (A/Moscow/10/1999(H3N2))), FRGRGVFEL gave a pKd of 7.21.

With KSFGRISVL, the pKd with HLA-B*15:17 (setting [28]) is 9.10; in the experiment with HLA-B*58:01 [6] (setting [28]), 7.75; with HLA-C*12:03 (setting [26]), no less than 9.00; with HLA-B*57:01 [16] (setting [26]), 6.50.
